Results reported in article PMC3639893, “Characterization of a Novel Metal-Dependent D-Psicose 3-Epimerase from Clostridium scindens 35704” (PLoS ONE, 2013).

Target: the molecule itself
Experiment: SEC; gel filtration of the purified native enzyme, buffer and standards not told

B1: D-psicose 3-epimerase from Clostridium scindens ATCC 35704 (hypothetical protein CLOSCI_02528) (enzyme, UniProt B0NGC5 1-289, looked up)
chain: MKHGIYYAYWEQEWAADYKRYVEKAAKLGFDILEVGAAPLPDYSAQEVKELKKCADDNGIQLTAGYGPAFNHNMGSSDPKIREEALQWYKRLFEVMAGLDIHLIGGALYSYWPVDFATANKEEDWKHSVEGMQILAPIASQYGINLGMEVLNRFESHILNTSEEGVKFVTEVGMDNVKVMLDTFHMNIEESSIGDAIRHAGKLLGHFHTGECNRMVPGKGRTPWREIGDALREIEYDGTVVMEPFVRMGGQVGSDIKVWRDISKGAGEDRLDEDARRAVEFQRYMLEWK
notes: D-psicose 3-epimerase (hypothetical protein CLOSCI_02528, protein ID ZP_02432283) of Clostridium scindens ATCC 35704; full-length synthetic gene cloned NdeI/XhoI into pET-22b(+); No removal of the C-terminal 6xhistidine tag is described; Metal-free after dialysis against EDTA; Subunit about 32 kDa by SDS-PAGE, native enzyme about 125 kDa by gel filtration; also called C. scindens DPEase; DPEase
stoichiometry N: 4
